Target: N-tagged HA-SadB protein (Pseudomonas fluorescens F113)
Experiment: SEC; gel filtration of HA-SadB, in the presence or absence of c-di-GMP; data not shown

N-tagged HA-SadB protein (natural protein)
stoichiometry N: 2

— article PMC6543031
